Changes are numbered by the printed parent chain.
T1: recombinant human full-length CD20 (human, UniProt P11836 1-297)
T1 chain: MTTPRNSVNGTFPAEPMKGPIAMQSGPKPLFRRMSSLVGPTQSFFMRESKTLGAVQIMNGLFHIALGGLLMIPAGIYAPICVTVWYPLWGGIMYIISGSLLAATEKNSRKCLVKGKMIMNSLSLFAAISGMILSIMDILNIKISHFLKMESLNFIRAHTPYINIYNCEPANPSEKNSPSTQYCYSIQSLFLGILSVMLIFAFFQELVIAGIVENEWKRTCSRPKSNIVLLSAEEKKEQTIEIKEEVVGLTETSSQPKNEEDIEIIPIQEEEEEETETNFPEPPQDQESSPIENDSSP

T2: recombinant human Fc gamma RIIa (CD32a) 131R (human, UniProt P12318 36-218)
T2 chain: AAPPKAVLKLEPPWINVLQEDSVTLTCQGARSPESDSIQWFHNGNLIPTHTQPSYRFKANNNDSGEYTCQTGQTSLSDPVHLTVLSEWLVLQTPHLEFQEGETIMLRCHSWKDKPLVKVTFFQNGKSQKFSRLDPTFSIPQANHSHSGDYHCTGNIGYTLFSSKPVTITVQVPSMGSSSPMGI

T3: recombinant human CD19 (human, UniProt P15391 20-291)
T3 chain: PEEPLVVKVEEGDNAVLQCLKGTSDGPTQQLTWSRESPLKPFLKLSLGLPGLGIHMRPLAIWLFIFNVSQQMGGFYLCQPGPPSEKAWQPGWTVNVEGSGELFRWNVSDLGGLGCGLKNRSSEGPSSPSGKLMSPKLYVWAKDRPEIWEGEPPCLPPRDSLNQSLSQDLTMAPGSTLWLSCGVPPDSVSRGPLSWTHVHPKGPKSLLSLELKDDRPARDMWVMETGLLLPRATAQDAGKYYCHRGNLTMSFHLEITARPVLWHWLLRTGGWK

T4: recombinant human Fc gamma RI (CD64) (human, UniProt P12314 16-288)
T4 chain: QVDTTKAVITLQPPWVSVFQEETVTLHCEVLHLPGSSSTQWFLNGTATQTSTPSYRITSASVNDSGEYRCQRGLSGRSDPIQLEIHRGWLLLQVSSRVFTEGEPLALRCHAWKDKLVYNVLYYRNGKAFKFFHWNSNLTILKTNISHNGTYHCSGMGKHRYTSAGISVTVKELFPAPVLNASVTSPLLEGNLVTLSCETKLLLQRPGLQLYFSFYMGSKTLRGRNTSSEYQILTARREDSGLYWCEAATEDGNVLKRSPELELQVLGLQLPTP

B1: Rituximab (antibody)
VH: not shown
VL: QIVLSQSPAILSASPGEKVTMTCRASSSVSYIHWFQQKPGSSPKPWIYATSNLASGVPVRFSGSGSGTSYSLTISRVEAEDAATYYCQQWTSNPPTFGGGTKLEIKRTVAAPSVFIFPPSDEQLKSGTASVVCLLNNFYPREAKVQWKVDNALQSGNSQESVTEQDSKDSTYSLSSTLTLSKADYEKHKVYACEVTHQGLSSPVTKSFNRGEC
B2: HB1905 (bispecific antibody)
light 1: DIQMTQTTSSLSASLGDRVTISCRASQDISKYLNWYQEKPDGTVKLLIYHTSRLHSGVPSRFSGSGSGTDYSLTISNLEQEDIATYFCQQGNTLPYTFGGGTKLEIKRTVAAPSVFIFPPSDEQLKSGTASVKCLLNNFYPREAKVQWKVDNALQSGNSQESVTEQDSKDSTYSLSSTLTLSKADYEKHKVYACEVTHQGLSSPVTKSFNRGEC
heavy 1: EVKLQESGPGLVAPSQSLSVTCTVSGVSLPDYGVSWIRKPPRKGLEWLGVIWGSETTYYNSALKSRLTIIKDNSKSQVFLKMSSLQTDDTAIYYCAKHYYYGGSYAMDYWGQGTSVTVSSASTKGPSVFPLAPSSKSTSGGTAALGCLVKDYFPEPVTVSWNSGALTSGVHTFPAVLQSSGLYSLESVVTVPSSSLGTQTYICNVNHKPSNTKVDKKVEPKSCTDWSPYADQSIKVRISLKSALGDKAYEWNDNEMYLFRSSVAYAMRQYFLKVKNQMILFGEEDVRVANLKPRISFNFFVTAPKNVSDIIPRTEVEKAIRMSRSRINDAFRLNDNSLEFLGIQPTLGPPNQPPVSTSTSPTRSMAPGAVHLPQPVSTRDKTHTCPPCPAPELLGGPSVFLFPPKPKDTLMISRTPEVTCVVVDVSHEDPEVKFNWYVDGVEVHNAKTKPREEQYNSTYRVVSVLTVLHQDWLNGKEYKCKVSNKALPAPIEKTISKAKGQPREPQVCTLPPSRDELTKNQVSLSCAVKGFYPSDIAVEWESNGQPENNYKTTPPVLDSDGSFFLVSKLTVDKSRWQQGNVFSCSVMHEALHNRFTQKSLSLSPG
light 2: QVQLQQPGAELVKPGASVKMSCKASGYTFTSYNMHWVKKTPGRGLEWIGAIYPGNGDTSYNQKFKGKATLTADKSSSTAYMQLSSLTSEDSAVYYCARSTYYGGDWYFNVWGAGTLVTVSSASVAAPSVFIFPPSDEQLKSGTASVECLLNNFYPREAKVQWKVDNALQSGNSQESVTEQDSKDSTYSLSSTLTLSKADYEKHKVYACEVTHQGLSSPVTKSFNRGEC
heavy 2: not shown
B3: HB1906 (bispecific antibody)
light 1: B2 light 1
heavy 1: B2 heavy 1
light 2: B2 light 2 with K39E
heavy 2: not shown

Key:
Assay in all cases: SPR
[1] = molecular target: T1, recombinant human full-length CD20
complement component C1q = complement component C1q (UniProt P02745 23-245; P02746 28-253; P02747 29-245)
Chain of complement component C1q (P02745 23-245, chain 1 of 3): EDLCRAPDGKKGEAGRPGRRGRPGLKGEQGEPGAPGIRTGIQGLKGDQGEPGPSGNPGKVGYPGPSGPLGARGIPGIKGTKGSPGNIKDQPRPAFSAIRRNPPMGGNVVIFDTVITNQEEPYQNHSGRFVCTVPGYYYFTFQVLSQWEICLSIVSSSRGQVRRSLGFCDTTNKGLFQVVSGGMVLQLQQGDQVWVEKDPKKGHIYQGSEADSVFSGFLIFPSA
Chain of complement component C1q (P02746 28-253, chain 2 of 3): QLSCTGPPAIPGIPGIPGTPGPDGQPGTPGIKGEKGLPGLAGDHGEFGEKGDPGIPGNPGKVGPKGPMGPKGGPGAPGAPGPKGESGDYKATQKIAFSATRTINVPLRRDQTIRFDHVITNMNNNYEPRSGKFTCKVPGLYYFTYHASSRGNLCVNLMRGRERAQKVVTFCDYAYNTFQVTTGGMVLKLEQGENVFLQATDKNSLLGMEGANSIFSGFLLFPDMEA
Chain of complement component C1q (P02747 29-245, chain 3 of 3): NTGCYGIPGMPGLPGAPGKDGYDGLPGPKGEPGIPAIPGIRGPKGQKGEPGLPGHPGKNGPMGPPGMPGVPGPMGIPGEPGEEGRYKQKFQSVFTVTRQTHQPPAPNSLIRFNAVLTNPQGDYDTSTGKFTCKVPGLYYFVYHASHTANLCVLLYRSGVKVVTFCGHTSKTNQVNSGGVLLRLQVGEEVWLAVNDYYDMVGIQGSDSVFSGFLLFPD

[2] = molecular target: T2, recombinant human Fc gamma RIIa (CD32a) …
[3] = molecular target: recombinant human Fc gamma RIIIa (CD16a) 158V (human, UniProt P08637 17-208)
Chain of recombinant human Fc gamma RIIIa (CD16a) 158V (P08637 17-208 F176V): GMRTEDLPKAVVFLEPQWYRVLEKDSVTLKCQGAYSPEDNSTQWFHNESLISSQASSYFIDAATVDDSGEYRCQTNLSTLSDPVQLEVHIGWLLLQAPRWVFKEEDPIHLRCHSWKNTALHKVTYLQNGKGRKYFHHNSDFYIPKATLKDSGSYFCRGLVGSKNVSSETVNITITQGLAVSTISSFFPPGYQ

recombinant human CD19 = molecular target: T3, recombinant human CD19
[4] = molecular target: T4, recombinant human Fc gamma RI (CD64)

Binder	Kd [1]	Kd (complement component C1q)	Kd [2]	Kd [3]	Kd (recombinant human CD19)	Kd [4]
B1	0.596 nM					
B2	< 0.18 nM	115 nM	380 nM	493 nM	4.8 nM	0.234 nM
B3	0.423 nM	115 nM	329 nM	488 nM	3.8 nM	0.259 nM

Reference: patent publication US20250084169A1 (published 2025)
